Numbering of substitutions follows the chain as printed.
Assays:
drDDC [1] = target: T1, drDDC (Drosophila melanogaster, UniProt P05031, H227W/DEL476-510, form not given); assay: HPLC-UV of decarboxylated product, Michaelis-Menten fit; format: biochemical; conditions: 38°C, 40 µM PLP, 150 mM potassium phosphate pH 7.0
T1 construct: gene Ddc; homodimer, PLP holoenzyme; residues 1-475
T1 sequence (P05031 1-475 isoform P05031-2 H192W): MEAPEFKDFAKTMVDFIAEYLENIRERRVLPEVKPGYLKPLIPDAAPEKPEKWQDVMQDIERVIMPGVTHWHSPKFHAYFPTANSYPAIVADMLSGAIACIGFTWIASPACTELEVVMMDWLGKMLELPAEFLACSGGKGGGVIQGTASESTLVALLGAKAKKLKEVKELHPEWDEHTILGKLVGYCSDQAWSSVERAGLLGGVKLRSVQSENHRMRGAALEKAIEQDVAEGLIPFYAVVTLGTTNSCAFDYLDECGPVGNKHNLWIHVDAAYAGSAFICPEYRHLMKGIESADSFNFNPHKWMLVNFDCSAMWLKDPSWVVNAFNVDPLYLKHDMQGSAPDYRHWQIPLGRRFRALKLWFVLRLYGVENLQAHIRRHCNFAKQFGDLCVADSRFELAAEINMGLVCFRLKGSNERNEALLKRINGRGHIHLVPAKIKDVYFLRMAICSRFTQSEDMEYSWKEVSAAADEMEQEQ
From the text: (§1) HPLC-UV of decarboxylated product, Michaelis-Menten fit on drDDC

drDDC [2] = target: T2, drDDC (Drosophila melanogaster, UniProt P05031, T117S/DEL476-510, form not given); assay: as above; format: biochemical; conditions: 38°C, 40 µM PLP, 150 mM potassium phosphate pH 7.0
T2 construct: gene Ddc; homodimer, PLP holoenzyme; residues 1-475
T2 sequence (P05031 1-475 isoform P05031-2 T82S): T1 sequence (P05031 1-475 isoform P05031-2 H192W) with T82S, W192H
From the text: as §1

drDDC [3] = target: T3, drDDC (Drosophila melanogaster, UniProt P05031, T117A/DEL476-510, form not given); assay: as above; format: biochemical; conditions: 38°C, 40 µM PLP, 150 mM potassium phosphate pH 7.0
T3 construct: gene Ddc; homodimer, PLP holoenzyme; residues 1-475
T3 sequence (P05031 1-475 isoform P05031-2 T82A): T1 sequence (P05031 1-475 isoform P05031-2 H192W) with T82A, W192H
From the text: as §1

drDDC [4] = target: T4, drDDC (Drosophila melanogaster, UniProt P05031); assay: X-ray crystal structure, […] Å; format: binding; conditions: covalent internal aldimine (Schiff base) with K302
T4 construct: gene Ddc; homodimer, PLP holoenzyme; residues 1-475
T4 sequence (P05031 36-510): T1 sequence (P05031 1-475 isoform P05031-2 H192W) with W192H

[5] = substrate: N[C@@H](Cc1ccc(O)c(O)c1)C(=O)O; assay: HPLC-UV of decarboxylated product, Michaelis-Menten fit; format: biochemical, Drosophila melanogaster; conditions: 38°C, 40 µM PLP, 150 mM potassium phosphate pH 7.0
From the text: as §1

[6] = substrate: NC(Cc1ccccc1O)C(=O)O; assay: as above; format: biochemical, Drosophila melanogaster; conditions: 38°C, 40 µM PLP, 150 mM potassium phosphate pH 7.0, racemic DL substrate
From the text: as §1

[7] = substrate: NC(Cc1cccc(O)c1)C(=O)O; assay: as above; format: biochemical, Drosophila melanogaster; conditions: 38°C, 40 µM PLP, 150 mM potassium phosphate pH 7.0, racemic DL substrate
From the text: as §1

[8] = substrate: N[C@@H](Cc1c[nH]c2ccc(O)cc12)C(=O)O; assay: as above; format: biochemical, Drosophila melanogaster; conditions: 38°C, 40 µM PLP, 150 mM potassium phosphate pH 7.0
From the text: as §1

[9] = target: the molecule itself; assay: crystal structure; hanging-drop vapor diffusion; 15% PEG 4000, 20% glycerol, 200 mM CaCl2, 100 mM cacodylic acid pH 6.5; molecular replacement with pig DDC (1js3); two molecules in the asymmetric unit

N[C@@H](Cc1c[nH]c2ccc(O)cc12)C(=O)O [5-HTP]
Km (drDDC [1]): 1.1 ± 0.1 mM | Km (drDDC [2]): 0.6 ± 0.1 mM | Km (drDDC [3]): 3.5 ± 0.5 mM

NC(Cc1ccccc1O)C(=O)O (racemic) [o-tyr, DL-o-tyrosine]
Km (drDDC [3]; racemic DL substrate): 4.9 ± 1.5 mM

N[C@@H](Cc1ccc(O)c(O)c1)C(=O)O [DOPA]
Km (drDDC [1]): 4.4 ± 0.8 mM | Km (drDDC [2]): 4.5 ± 0.9 mM | Km (drDDC [3]): 5.6 ± 1 mM

Cc1ncc(COP(=O)(O)O)c(C=O)c1O [PLP]
X-ray crystal structure, 1.75 Å (drDDC [4]): The cofactor PLP binds to K302 through a Schiff base linkage

NC(Cc1cccc(O)c1)C(=O)O (racemic) [m-tyr, DL-m-tyrosine]
Km (drDDC [1]; racemic DL substrate): 2.6 ± 1.1 mM | Km (drDDC [2]; racemic DL substrate): 11.4 ± 2.2 mM | Km (drDDC [3]; racemic DL substrate): 13.3 ± 4.5 mM

B1: drDDC (Drosophila melanogaster) (protein)
chain: T1 sequence (P05031 1-475 isoform P05031-2 H192W) with W192H
notes: homodimer, PLP holoenzyme; residues 1-475
Km [5]: 2.2 ± 0.3 mM | kcat [5]: 4.7 ± 0.0267 s⁻¹ | kcat/Km [5]: 2140 M⁻¹ s⁻¹ | Km [6]: 1.1 ± 0.3 mM | kcat [6]: 1.85 ± 0.133 s⁻¹ | kcat/Km [6]: 1680 M⁻¹ s⁻¹ | Km [7]: 2.3 ± 1.2 mM | kcat [7]: 3.56 ± 0.673 s⁻¹ | kcat/Km [7]: 1550 M⁻¹ s⁻¹ | Km [8]: 0.4 ± 0.04 mM | kcat [8]: 1.05 ± 0.0233 s⁻¹ | kcat/Km [8]: 2620 M⁻¹ s⁻¹

B2: Drosophila melanogaster 3,4-dihydroxyphenylalanine decarboxylase, wild type (enzyme, UniProt P05031-2 1-475, looked up)
chain: T1 sequence (P05031 1-475 isoform P05031-2 H192W) with W192H
modifications: lysine-pyridoxal-5-phosphate (LLP): PLP bound to K302 through a Schiff base (internal aldimine)
notes: the forward primer begins at ATG GAG GCG CCG GAG TTC (MEAPEF); also called drDDC; drDDC WT; source: Escherichia coli DE3, purified (chitin beads, DEAE-Sepharose, Mono-Q, gel filtration)
stoichiometry N [9]: 2

Source: publication PMC2809104, “Crystal Structure and Substrate Specificity of Drosophila 3,4-Dihydroxyphenylalanine Decarboxylase” (PLoS ONE, 2010)
